Measurements reported in the DeepSol protein solubility set.

Test: soluble on expression in E. coli; label from the status in PepcDB or PDB records

Soluble on expression in E. coli, not soluble:
MGSDKIHHHHHHMVIENAMNIQFVLKDFSTFGGVERIQYNLAKKFKNDGHNVSFYILNGDSVALDTSHEFIIHKGSKSGFITFLFEIIKLRNNIYKNRIDVVIAAKEQANIAAFFATIFTKVSTIYTRHSALNVSEQRINERSVLLIYSLLTLSKGKVVTVSHDLKYSLLKSLPWGKDKIHVCPNPVLTESIYLKSLQPITDFKLPLSYICSVGRLTRTKGFDVLIQAYKQCITKELNFPDLVIAGSGEEYASLVKLTQELNVADKVHFLGHIDNPYVLMKNSSGFVLSSRNEGLPTVLIEAIALGTNVVSTDCLTGPREILDGGRIGKLVPVEDVRSLAEAMLTLPLHKLSESEIREMDRYSLEQSAIAYFKLFTKKSH
MGSDKIHHHHHHMKKVVVGLSGGVDSSTAAAILHNQGYEVIGLTLWLMKGKGQCCSEGMIDAAYICEQLGIPHEVVDMRDVFQTHIVDYLVTGYGAGITPLPCSQCNKTVKFGPMVQYAREQLGCDRIATGHYARISYDEASGRYQLLRAVDRNKDQSYFLYDLSQDLLAASLFPLGEMEKADTRRIATEHGLKTADKPESQDLCLVESNGSMRAFLDKYIAPKKGDIVDTAGKILGQHDGVHHYTIGQRKGLGIAAPEPLYVVELDAVNNKVVVGDRTKATQEECTVSRVNWVSIPEPSTPIRAAVQIRYRSAPEPVTVIPLENSRVRLVFDEPQFSITPGQAAVWYDGDKVLGGGIIEQFSN
MASGPHSTATAAAAASSAAPSAGGSSSGTTTTTTTTTGGILIGDRLYSEVSLTIDHSLIPEERLSPTPSMQDGLDLPSETDLRILGCELIQAAGILLRLPQVAMATGQVLFHRFFYSKSFVKHSFEIVAMACINLASKIEEAPRRIRDVINVFHHLRQLRGKRTPSPLILDQNYINTKNQVIKAERRVLKELGFCVHVKHPHKIIVMYLQVLECERNQTLVQTAWNYMNDSLRTNVFVRFQPETIACACIYLAARALQIPLPTRPHWFLLFGTTEEEIQEICIETLRLYTRKKPNYELLEKEVEKRKVALQEAKLKAKGLNPDGTPALSTLGGFSPASKPSSPREVKAEEKSPISINVKTVKKEPEDRQQASKSPYNGVRKDSKRSRNSRSASRSRSRTRSRSRSHTPRRHYNNRRSRSGTYSSRSRSRSRSHSESPRRHHNHGSPHLKAKHTRDDLKSSNRHGHKRKKSRSRSQSKSRDHSDAAKKHRHERGHHRDRRERSRSFERSHKSKHHGGSRSGHGRHRR
MQAAPQGGIYNYFHSLLPPLSLAPFLPRTPLPSTSLFCKGLKKERYKPRFRPRECHCSVENLHLGHEMQNSHRTICKSALQLLPPSWSDPFRRRDADFPPNSPSPARPSSENASNRAKEKVHLSPIIALCISHHTSQEKLFTQHLMNMPTGETHKSPPS
MIALKMFYTEETYEQFFDYGLDYVIDASDTICYKIHLMKECLKRDIPLISSMGAANKTDPTRFQIADISKTHTDPIAKVVRTKLRKEGIKKGVQVIFSDESPIVIREDVRKEVGNDEAKIRKAKMPPSSNAFVPSVAGLIMGGHVVMDLLKDIEIKRVKDK
MAHHHHHHMPAAVPVRTPPYLVDVAANLTDCVFRGVDWKSNRLHDDDFDYVLARAQERNVQQIIITGTSLAQSVKAIALCRRYPDRRLLCTVGVHPAHCGEFLRPLDRDEVQRVAESASSVVMPHHEKSAAAMTAEREEAWAQERLDYLVDLATRNRDVVVAMGEIGIDYAEVACCPREVQEKYFARQLTAFAPLQLPFLFHSRACGMMFVSHLQDTWTRIASDAAATEAVADNAGASSPSPHAQLRGVVHSFNGTLEEQEALLSMGLYLSLNSSAFREASLAAQVALIPLGRLMFETDAPWCDVRSKDYGAQFVRTVFKTIKRKKPFEMGACLERRNEPCHLVQVMEEYLGCAKASATSPEDPLSRMDEATLVAAVYENCKRLFQL
MYARYAGLIFDMDGTLLDTEPTHRKAWREVLGRYGLRFDEQAMVALNGSPTWLIAQSIIELNHADLDPLSLAREKTDAVKSILLDCVEPLPLVEVVKAWHGRRPMSVGTGSESAIAEALLAHLGLRRYFDAVVAADHVQHHKPAPDTFLLCAQRMGVMPTQCVVFEDADFGLQAARAAGMDAVDVRLL
MVSKKKALEMIDVIANMFPDAECELKHDNPFELTIAVLLSAQCTDVLVNRVTTELFKKYKTPEDYLAVSDEELMNDIRSIGLYRNKAKNIKKLCQSLIDQFNGEIPQTHKELESLAGVGRKTANVVMSVAFDEPSLAVDTHVERVSKRLGINRWKDNVRQVEDRLCSVIPRDRWNRSHHQLIFFGRYHCLARKPKCDICPLLEDCREGQKRYKASLKEA
GHHDKRFKAFIAHDGIFNMEMQYLETEEKWFANWDMGGAYWEKQNPTAQRTFANSPHLFVEKWDTPILCIHGEKDYRILANQAMAAFDAAVMRGVPAELLIYPDENHWVLKPQNGVLWQRTFFEWLDQWLKPN
VWRTREAVVACIDADPHAEHVLRSAHRLAQQLDCEWHAITIEAPRVAPLPRAGRARLDQALALAETLGAHVETVAGTDMVDAATRYMRRHNITKAVVGRDAWRRRGLSGLL
MADPKGFLTTPREEWPRRPAGERVRDWDEVYVPGALLPIVGRQADRCMDCGVPFCHEACPLGNLIPEWNDLVSRSDWRAASERLHATNNFPEFTGRLCPAPCEAGCVLAINQPAVTIKNVECAIADTAWEEGFVPPLPPERLSGRTVAVIGSGPAGLAAAQQLTRAGHTVAVYERDDRIGGLLRYGIPAFKMEKRHLERRVGQMRAEGTRFRTSAAVGRDVDAAALRTRYDAVVIATGATAWRELTVPGRELAGVHQAMEYLPLANRVCEGDLERSPLSAAGRHVVVVGGGDTGADCLGTAVREGAASVTQLDIYARPGAERDERAEPWPTYPRLYRLSAAHEEARDLRSAPAADADARLFAASTLRFTGDERGHVRALHLVGVDTGRRPLPGSERSLPADLVLLALGFSGPDRHDGLVDGLGLDMEPRGTITRDRGFATNVPGVFAAGDAARGQSLVVWAIAEGRAVAAAVDRHLSGGSTRLPAPVGPYDRPMTALEHHHHHH
MDHTVLIALLLAFCSTASAVDSEGTDFVFAFVRNANPNITNQILSATVLNQNAQDCKFTLTYRPDYRKATSPENITVTVSANSAVEVPVLSWYGWNYANENLQDDVFLTLTGFSTCPVTVLANNYDNVTGQGDTYMVLPLTWGSTSLTFSLPPAVLSTDQQYEQIYVLPTTPGVTKVSVFEIGNAASVYTFNATFGNAPAAYIGARTPDARPRTYHVMSDKNVLVVAGVTCAGADANSCDHVAYMPHPPPSSDCYTYDYYDDDHVSYLPTTSQFFTDIPGTCSVGQNITRTLNDGVSYTITIKPQMESPLWSIKTTNANQLAVAFHNGGSNIHIARYYDGTKFNSRGAFAATSPSMTQFHNLNTPFFTRNANDTIEIYCTVLSCSSITIDGVKIQITDTKVVQKVDDISYYIFVNTIANPGYHQISLKQQGSYAFFVYGKNKLYSYGYEGGANKPTVVLAPPTTPGPTFYPVTTVSTMSPPTTVTVPTTPTPVPTTTNTPPANPTTATPTTVGTMTPSTGTTTVPVPTTTGSPTTQTTAPVTKPTVPSSTTQTAPPVTTPTSQPPVTTTSLLTTLTTPTVPVTTTVVPSSATVPTTPPTTVTVAATTTSKAPVVTTSPTLAPTSPTKLPTSPPSTVGTSPTAPANLTTPTTAPVNPTSSTTAPTAPVNPTSPTTAPTVPPVTTTTPTTTTSTTTTTTTTTTTTQTTPTTPVVTTPSTITPTTRPVTQPASQPATQPATTPTTTIPTTTQFSSAVSVALPVVLTMFFALF
MGSDKIHHHHHHMFSSPLELFKALTQIPHSSGDTTLMQKFLIQSAQSFGALVSVDSAGNILCQKGDSPRFCLQAHYDMVCVGKAPEIELFEEGGWLRAKDSSLGADNGAALACFLILLKQESSIEILFTNDEEIGMLGAKALELTPSAPLILNVDSESLQEVVISCAGGYDLELEIPATFKETPAEGYLYELSTQNFLGGHSGIDIIKNHPNALVEMAHLLASLPVEILSFEGGEKSNSIPVHAKASLFSSRPLEHLPSWIRATARPLSSPLKALDQTPLLDLLRALHSGIFAYDEESSGVLDSLNISLLKAHEKGWTLTLMGRANDKERLWRNLERARLIARAFGIKEDRLKDFYPPWEKAKSSSYLEKIKEVYERELGVCHVRSIHAGLECAVLQEKLPKAEFISIGPTILHPHSTREALDIKSFERFWEILQIITKVL
MSMLCSLYRITPEQVTKLKDFPDAIGELVGFTAPPPKVSFLSKLFGKPPKQLSSSGQQFEPVAESDIFELNQAWHILHFLFSGTNAESPWPGGFLISGGEEIGPDQGYGPIRLFDSELSRAVAGFLDTQSFKMLDSAYVASEIEATEIYWKVSSEHTERQRQLEELWSMVKELQTFFEHTVRAGNATLLSIY
MGSDKIHHHHHHMSNYRNPHQLIITADDYGMCPEVNRAIEECLAAGALRATCVMTNMPAYTDADRLSKDFPSASIGIHWTLTAGTPVAPLSEVPDLVAPNGQFWPAAEFRQRWLSRRISPTQVVIELQAQHARFVELIGQPAFWNTHQNVHVLPRLFPLVVDLAHRLGIPAMRSHRRITAPRHSSTLRYYLTHPIYWLKGQIIARWAAAAEKRGLRMPAGVVSTPGFGPGKVAIDQIIARIPWPRRLPAELVIHPATRVIPGLFGGLTESRLREFEVFRDPTLVERLAAMGVQPVGFEVL

Soluble on expression in E. coli, soluble:
SDEDGLPLMGSGIDLTKVPAIQQKRTVAFLNQFVVHTVQFLNRFSAVCEEKLADLSLRIQQIETTLNILDAKLSSIPGLEDVTVEVSPLNVTAVTNGSHSETTSEQTQQNSTQDSGAQESEAPSENVLTVAKDPRYARYRKMVQVGVPVMAIRDKMISEGLDPELLEKPDAPVPNGESKRAVEESSDSDSSFSD
MGHHHHHHSHMTTPRSAPLYKLKSEDGQIFNVERGPMKFCAFINQKFIDHGVNDRNCERADPILVPFHSSIVQAVIEWLYHYQDNPLARRDSKIRYHDFSEWDKQFFNVESGVLFALLNASHALGVEDLMNMGCAAAAELIRGKSTEEIRKIYGIRSDEEQMEEALANGGEGTSAMTFTTDSD
GAMDPREVILCKDQDGKIGLRLKSIDNGIFVQLVQANSPASLVGLRFGDQVLQINGENCAGWSSDKAHKVLKQAFGEKITMTIRDRPFERTITMHKDSTGHVGFIFKNGKITSIVKDSSAARNGLLTEHNICEINGQNVIGLKDSQIADILSTSGTVVTITIMPAF
MRSIYLCRHGESELNLRGRIGGDSGLSARGKQYAYALANFIRSQGISSLKVWTSHMKRTIQTAEALGVPYEQWKALNEIDAGVCEEMTYEEIQEHYPEEFALRDQDKYRYRYPKGESYEDLVQRLEPVIMELERQENVLVICHQAVMRCLLAYFLDKSSDELPYLKCPLHTVLKLTPVAYGCRVESIYLNV
MHHHHHHSSGVDLGTENLYFQSMEKTELIQKAKLAEQAERYDDMATCMKAVTEQGAELSNEERNLLSVAYKNVVGGRRSAWRVISSIEQKTDTSDKKLQLIKDYREKVESELRSICTTVLELLDKYLIANATNPESKVFYLKMKGDYFRYLAEVACGDDRKQTIDNSQGAYQEAFDISKKEMQPTHPIRLGLALNFSVFYYEILNNPELACTLAKTAFDEAIAELDTLNEDSYKDSTLIMQLLRDNLTLWTSDSAG
MQEKYNFGKVSSQHKNYSKIETMLRPKGFDKLDHYFRTELDIDLTDETIELLLNSVKAAFGKLFYGAEQRARWNGRDFIALADLNITKALEEHIKNFQKIEQDMGVDELLEYIAFIPPVEMNVGEDLKSEYRNIMGGLLLMHADVIKKATGERKPSREAMEFVAQIVDKVF
